Reference: the PETadex activity labels (doi:10.1021/ma200949p)
Numbering of substitutions follows the chain as printed.

B1: unnamed (protein)
chain: MANPYERGPNPTDALLEARSGPFSVSEENVSRLSASGFGGGTIYYPRENNTYGAVAISPGYTGTEASIAWLGERIASHGFVVITIDTITTLDQPDSRAEQLNAALNHMINRASSTVRSRIDSSRLAVMGHSMGGGGSLRLASQRPDLKAAIPLTPWHLNKNWSSVRVPTLIIGADLDTIAPVLTHARPFYNSLPTSISKAYLELDGATHFAPNIPNKIIGKYSVAWLKRFVDNDTRYTQFLCPGPRDGLFGEVEEYRSTCPF
B2: unnamed (protein)
chain: MANPYERGPNPTDALLEARSGPFSVSEERASRFGADGFGGGTIYYPRENNTYGAVAISPGYTGTQASVAWLGERIASHGFVVITIDTNTTLDQPDSRARQLNAALDYMINDASSAVRSRIDSSRLAVMGHSMGGGGTLRLASQRPDLKAAIPLTPWHLNKNWSSVRVPTLIIGADLDTIAPVLTHARPFYNSLPTSISKAYLELDGATHFAPNIPNKIIGKYSVAWLKRFVDNDTRYTQFLCPGPRDGLFGEVEEYRSTCPF
B3: unnamed (protein)
chain: B1 chain with R19S, S137T, R166T, L183A, R187K, T195S
B4: unnamed (protein)
chain: MAVMTPRRERSSLLSRALQVTAAAATALVTAVSLAAPAHAANPYERGPNPTDALLEASSGPFSVSEENVSRLSASGFGGGTIYYPRENNTYGAVAISPGYTGTEASIAWLGERIASHGFVVITIDTITTLDQPDSRAEQLNAALNHMINRASSTVRSRIDSSRLAVMGHSMGGGGTLRLASQRPDLKAAIPLTPWHLNKNWSSVTVPTLIIGADLDTIAPVATHAKPFYNSLPSSISKAYLELDGATHFAPNIPNKIIGKYSVAWLKRFVDNDTRYTQFLCPGPRDGLFGEVEEYRSTCPF

Experiments:
p-NP-C2 = details: pH 7, 25 °C
p-NP-C4 = details: pH 7, 25 °C
pNP-C2 [1] = assay: Proxy for plastic degradation [Km]; details: pH 7
pNPB [2] = assay: Proxy for plastic degradation [Km]; details: pH 7
pNP-C2 [3] = assay: Proxy for plastic degradation [kcat] (s⁻¹); details: pH 7
pNPB [4] = assay: Proxy for plastic degradation [kcat] (s⁻¹); details: pH 7
PET [5] = assay: Proxy for plastic degradation [Water contact angle]; details: pH 7
PET [6] = assay: Proxy for plastic degradation [Released monomer concentration (HPLC/LC-MS) (TPA)] (mmol/mol enzyme); details: pH 7
PET [7] = assay: Proxy for plastic degradation [Released monomer concentration (HPLC/LC-MS) (TPA+MHET+BA+HEB)] (mmol/mol enzyme); details: pH 7
PET [8] = assay: Proxy for plastic degradation [Released monomer concentration (HPLC/LC-MS) (BA (benzoic acid))] (mmol/mol enzyme); details: pH 7
PET [9] = assay: Proxy for plastic degradation [Released monomer concentration (HPLC/LC-MS) (HEB (2-hydroxyethyl benzoate))] (mmol/mol enzyme); details: pH 7
PET [10] = assay: Proxy for plastic degradation [Released monomer concentration (HPLC/LC-MS) (BA)]; details: pH 7
PET [11] = assay: Proxy for plastic degradation [Released monomer concentration (HPLC/LC-MS) (HEB)]; details: pH 7
MHET = assay: Proxy for plastic degradation [Released monomer concentration (HPLC/LC-MS) (MHET)]; details: pH 7
PET [12] = assay: Proxy for plastic degradation [Released monomer concentration (HPLC/LC-MS) (MHET+BA, TA, HEB)]; details: pH 7
PET [13] = assay: Proxy for plastic degradation [Surface fluorescence after BrNP labelling]; details: pH 7; part of the chain shown

Protein	Proxy for plastic degradation (pNPB [2])	Proxy for plastic degradation (pNPB [4])	Km (p-NP-C2; part of the chain shown)	kcat (p-NP-C2; part of the chain shown)	kcat/Km (p-NP-C2; part of the chain shown)	Km (p-NP-C4; part of the chain shown)	kcat (p-NP-C4; part of the chain shown)	kcat/Km (p-NP-C4; part of the chain shown)	Proxy for plastic degradation (pNP-C2 [1]; part of the chain shown)	Proxy for plastic degradation (pNPB [2]; part of the chain shown)	Proxy for plastic degradation (pNP-C2 [3]; part of the chain shown)	Proxy for plastic degradation (pNPB [4]; part of the chain shown)	Proxy for plastic degradation (PET [10]; part of the chain shown)	Proxy for plastic degradation (PET [11]; part of the chain shown)	Proxy for plastic degradation (MHET; 50 °C, part of the chain shown)	Proxy for plastic degradation (MHET; part of the chain shown)	Proxy for plastic degradation (PET [12]; part of the chain shown)	Proxy for plastic degradation (PET [6]; part of the chain shown)	Proxy for plastic degradation (PET [7]; 2 h, part of the chain shown)	Proxy for plastic degradation (PET [8]; part of the chain shown)	other results
B1	2100 µM	30.9																			Km (p-NP-C2): 167 µM; kcat (p-NP-C2): 39.5 s⁻¹; kcat/Km (p-NP-C2): 237000 M⁻¹ s⁻¹; Km (p-NP-C4): 2100 µM; kcat (p-NP-C4): 30.9 s⁻¹; kcat/Km (p-NP-C4): 14700 M⁻¹ s⁻¹; Proxy for plastic degradation (pNP-C2 [1]): 167 µM; Proxy for plastic degradation (pNP-C2 [3]): 39.5; Proxy for plastic degradation (PET [5]): 71.2 °; Proxy for plastic degradation (PET [6]): 42; Proxy for plastic degradation (PET [7]; 2 h): 64; Proxy for plastic degradation (PET [7]; 24 h): 830; Proxy for plastic degradation (PET [7]; 72 h): 1820; Proxy for plastic degradation (PET [8]): 22.7; Proxy for plastic degradation (PET [9]): 23.4
B2			200 µM	2.4 s⁻¹	12000 M⁻¹ s⁻¹	2130 µM	5.3 s⁻¹	2480 M⁻¹ s⁻¹	200 µM	2130 µM	2.4	5.3	28 mmol/mol	29 mmol/mol	13 mmol/mol	18 mmol/mol	76 mmol/mol	5	90	27.9	Proxy for plastic degradation (PET [9]; part of the chain shown): 28.6
B3			127 µM	212 s⁻¹	1.67e+06 M⁻¹ s⁻¹	1480 µM	195 s⁻¹	132000 M⁻¹ s⁻¹	127 µM	1480 µM	212	195	48 mmol/mol	32 mmol/mol	5 mmol/mol	25 mmol/mol	63 mmol/mol	56	119	48.9	Proxy for plastic degradation (PET [5]; part of the chain shown): 66.3 °; Proxy for plastic degradation (PET [13]): 1540 AU; Proxy for plastic degradation (PET [9]; part of the chain shown): 32
B4	2100 µM	30.9																			Proxy for plastic degradation (PET [10]): 23 mmol/mol; Proxy for plastic degradation (PET [11]): 22 mmol/mol; Proxy for plastic degradation (MHET): 15 mmol/mol; Proxy for plastic degradation (MHET; 50 °C): 7 mmol/mol; Proxy for plastic degradation (PET [12]): 49 mmol/mol
